Article PMC5774828

Molecular target: DS protein (Dengue-HBsAg fusion: EDIII of DENV-1, -3, -4 and -2 joined in tandem to the HBV S antigen) (dengue virus 1 (West Pac-74) | dengue virus 3 (H87/56) | dengue virus 4 (H241-P) | dengue virus 2 (PR159-S1/69) | hepatitis B virus (adw serotype))
Experiment: densitometry of a Western blot of the purified VLPs; Western blot of purified DSV4 developed with anti-S mAb 5S; ratio from the peak areas of DS, S and S dimer (ImageJ)

## Hepatitis B virus surface (S) antigen, unfused (natural protein)
  stoichiometry N: 4 S per DS
